Reference: publication PMC5925078

Tests used:
TNFR1 ECD (Homo sapiens) = TNFR1 ECD (Homo sapiens) (UniProt P19438); assay: SPR; settings: cited from earlier work
TNFR2 ECD (Homo sapiens) = TNFR2 ECD (Homo sapiens) (UniProt P20333); assay: SPR; settings: cited from earlier work
membrane TNF = membrane TNF (UniProt P01375); assay: cellular binding study with GpL (luciferase) fusion protein; reciprocal competition; memTNF-expressing HEK293 transfectants incubated 90 min with 100 ng/ml TNFR1ed-GpL or TNFR2ed-GpL, alone or mixed with 2,000 ng/ml sTNF or 2,000 ng/ml PGRNAdi; EV transfectants as non-specific binding

| specific binding, fold over background (the pair that is blocked) (membrane TNF) | Substance | Kd (TNFR1 ECD (Homo sapiens)) | Kd (TNFR2 ECD (Homo sapiens)) |
| --- | --- | --- | --- |
|  | Progranulin (from UniProt P28799) | 1.77 nM | 1.52 nM |
| > 2000 fold | TNFR1ed-GpL (from UniProt P19438 30-211) (receptor) |  |  |
| > 200 fold | TNFR2ed-GpL (from UniProt P20333 23-257) (receptor) |  |  |
